B1: ethylene receptor ethylene response 1 (ETR1), wild type (receptor, Arabidopsis, UniProt P49333 1-738, looked up)
chain: MEVCNCIEPQWPADELLMKYQYISDFFIAIAYFSIPLELIYFVKKSAVFPYRWVLVQFGAFIVLCGATHLINLWTFTTHSRTVALVMTTAKVLTAVVSCATALMLVHIIPDLLSVKTRELFLKNKAAELDREMGLIRTQEETGRHVRMLTHEIRSTLDRHTILKTTLVELGRTLALEECALWMPTRTGLELQLSYTLRHQHPVEYTVPIQLPVINQVFGTSRAVKISPNSPVARLRPVSGKYMLGEVVAVRVPLLHLSNFQINDWPELSTKRYALMVLMLPSDSARQWHVHELELVEVVADQVAVALSHAAILEESMRARDLLMEQNVALDLARREAETAIRARNDFLAVMNHEMRTPMHAIIALSSLLQETELTPEQRLMVETILKSSNLLATLMNDVLDLSRLEDGSLQLELGTFNLHTLFREVLNLIKPIAVVKKLPITLNLAPDLPEFVVGDEKRLMQIILNIVGNAVKFSKQGSISVTALVTKSDTRAADFFVVPTGSHFYLRVKVKDSGAGINPQDIPKIFTKFAQTQSLATRSSGGSGLGLAISKRFVNLMEGNIWIESDGLGKGCTAIFDVKLGISERSNESKQSGIPKVPAIPRHSNFTGLKVLVMDENGVSRMVTKGLLVHLGCEVTTVSSNEECLRVVSHEHKVVFMDVCMPGVENYQIALRIHEKFTKQRHQRPLLVALSGNTDKSTKEKCMSFGLDGVLLKPVSLDNIRDVLSDLLEPRVLYEGM
notes: Solubilised in beta-D-dodecylmaltoside; also called sensor kinase ETR1; AtETR1

Data set [1] deals with the molecule itself. The data set is described as follows: fluorescence polarisation; Perrin plot of 2 uM ETR1 together with 0.2 uM dansylated AHP1; 0.2 M potassium phosphate pH 8.0, 0.05% beta-D-dodecylmaltoside, 10 mM beta-cyclodextrin; 5-25 C; apparent molecular weight. Background: Fluorescence polarisation rises when a labelled molecule tumbles more slowly, as on binding a larger partner.

The target of data set [2] is B1. The description is as above. The note with it: both partners purified.
Data set [3] deals with B1. Nature of the data set: fluorescence polarisation; wild type ETR1 pre-incubated with 0.1 mM copper chloride, added to wild type AHP1-GFP; with 100 uM potassium cyanide; 50 mM Tris-HCl pH 7.5, 100 mM KCl, 0.1% beta-D-dodecylmaltoside, 0.002% PMSF. Particulars: both partners purified.
In data set [4] the target is B1. The data set is described as follows: fluorescence polarisation; control: wild type ETR1 and wild type AHP1-GFP with cyanide or ethephon but without the copper cofactor; same buffer. The note with it: both partners purified.
Data set [5] deals with B1. Nature of the data set: fluorescence polarisation; wild type ETR1 pre-incubated with 0.1 mM copper chloride, added to wild type AHP1-GFP; with 100 uM ethephon; 50 mM Tris-HCl pH 7.5, 100 mM KCl, 0.1% beta-D-dodecylmaltoside, 0.002% PMSF. The note with it: both partners purified.

B1: the stoichiometry N – broadly, a count of units in the complex or per binding partner – in data set [1] was 2.

B2: dansylated AHP1 (natural protein, Arabidopsis, UniProt Q9ZNV9 1-154, looked up)
chain: MDLVQKQKSLQDYTKSLFLEGILDSQFLQLQQLQDESNPDFVSQVVTLFFQDSDRILNDLSLSLDQQVVDFKKVDPHVHQLKGSSSSIGAQRVKNACVVFRSFCEQQNVEACHRCLQQVKQEYYLVKNRLETLFKLEQQIVASGGMIPAVELGF
modifications: dansyl label (dansyl chloride; typical ratio of protein-dansyl labeling 1:4), positions not given
notes: Theoretical molecular weight printed as 18.3 kDa; also called AHP1 (dansylated, without GFP); source: recombinant, purified from the bacterial host, then dansylated
For B2, in data set [2], the binding result is listed as “binds”.

B3: AHP1-GFP(S65T), wild type Arabidopsis histidine-containing phosphotransfer protein 1 fused to green fluorescent protein (natural protein, UniProt Q9ZNV9 1-154, looked up)
chain: MDLVQKQKSLQDYTKSLFLEGILDSQFLQLQQLQDESNPDFVSQVVTLFFQDSDRILNDLSLSLDQQVVDFKKVDPHVHQLKGSSSSIGAQRVKNACVVFRSFCEQQNVEACHRCLQQVKQEYYLVKNRLETLFKLEQQIVASGGMIPAVELGF
notes: AHP1, Arabidopsis histidine-containing phosphotransfer protein 1; Theoretical molecular weight of AHP1-GFP printed as 45.6 kDa; also called wild type AHP1-GFP
B3: the Kd (commonly the concentration at which binding is half-saturated) was 9 µM in data set [3], 1.4 µM in data set [4] and 7.7 µM in data set [5].

The record behind these values is paper PMC3166298, “Phosphorylation Alters the Interaction of the Arabidopsis Phosphotransfer Protein AHP1 with Its Sensor Kinase ETR1” (PLoS ONE, 2011).
